Laboratory results published in patent publication US7749976B2, “Isolated PTPMT1 protein which mediates insulin production and uses thereof” (The Regents of the University of California, priority 2005, dated 2010).
Marks after values point to notes of the source that are not given here.

T1: PLIP (Mus musculus, UniProt Q66GT5)
T1 construct: ligating a PCR product encoding full-length PLIP; made in house; host or cells: Escherichia coli BL21 (DE3) CodonPlus RIL
T1 sequence (Q66GT5 32-193): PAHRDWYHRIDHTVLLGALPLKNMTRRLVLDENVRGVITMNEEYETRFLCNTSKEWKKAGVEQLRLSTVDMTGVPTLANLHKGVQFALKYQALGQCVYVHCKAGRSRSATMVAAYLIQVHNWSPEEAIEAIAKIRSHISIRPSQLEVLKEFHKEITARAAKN

T2: TC-PTP (Homo sapiens, UniProt P17706)
T2 sequence (P17706 1-415): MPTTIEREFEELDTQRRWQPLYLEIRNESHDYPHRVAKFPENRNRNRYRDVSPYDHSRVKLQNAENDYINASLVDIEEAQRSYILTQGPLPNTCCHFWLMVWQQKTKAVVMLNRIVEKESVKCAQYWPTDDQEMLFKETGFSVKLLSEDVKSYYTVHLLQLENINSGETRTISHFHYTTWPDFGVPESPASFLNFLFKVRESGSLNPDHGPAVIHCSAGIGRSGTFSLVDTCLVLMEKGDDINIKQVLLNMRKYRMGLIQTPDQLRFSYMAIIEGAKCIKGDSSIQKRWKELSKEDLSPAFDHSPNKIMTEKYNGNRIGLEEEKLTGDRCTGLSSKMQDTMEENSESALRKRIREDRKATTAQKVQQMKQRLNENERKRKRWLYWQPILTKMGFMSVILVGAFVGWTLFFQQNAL

T3: MTM1 (Homo sapiens, UniProt Q13496)
T3 sequence (Q13496 1-603): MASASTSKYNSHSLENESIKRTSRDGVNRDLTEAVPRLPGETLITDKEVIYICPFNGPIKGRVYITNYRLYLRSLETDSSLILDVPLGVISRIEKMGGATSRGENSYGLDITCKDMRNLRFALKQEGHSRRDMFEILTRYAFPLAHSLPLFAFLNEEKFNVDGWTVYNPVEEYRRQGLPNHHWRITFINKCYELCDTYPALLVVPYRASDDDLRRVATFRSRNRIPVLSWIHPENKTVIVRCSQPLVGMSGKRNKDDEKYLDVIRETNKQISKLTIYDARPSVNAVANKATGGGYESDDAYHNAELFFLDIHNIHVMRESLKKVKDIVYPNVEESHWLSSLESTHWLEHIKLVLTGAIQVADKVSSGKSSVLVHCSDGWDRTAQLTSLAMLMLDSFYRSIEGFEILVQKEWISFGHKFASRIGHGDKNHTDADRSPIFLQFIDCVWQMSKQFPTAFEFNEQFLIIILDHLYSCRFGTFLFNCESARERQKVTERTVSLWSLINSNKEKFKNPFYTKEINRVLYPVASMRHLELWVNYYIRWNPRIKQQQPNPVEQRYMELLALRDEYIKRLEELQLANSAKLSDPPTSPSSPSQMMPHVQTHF

B1: myelin basic protein: radiolabeled myelin basic protein (protein, UniProt P02686 1-304, looked up)
Myelin basic protein: MGNHAGKRELNAEKASTNSETNRGESEKKRNLGELSRTTSEDNEVFGEADANQNNGTSSQDTAVTDSKRTADPKNAWQDAHPADPGSRPHLIRLFSRDAPGREDNTFKDRPSESDELQTIQEDSAATSESLDVMASQKRPSQRHGSKYLATASTMDHARHGFLPRHRDTGILDSIGRFFGGDRGAPKRGSGKDSHHPARTAHYGSLPQKSHGRTQDENPVVHFFKNIVTPRTPPPSQGKGRGLSLSRFSWGAEGQRPGFGYGGRASDYKSAHKGFKGVDAQGTLSKIFKLGGRDSRSGSPMARR
modifications: radiolabeled
B2: MyBP Ser(P)/Tyr(P): radiolabeled myelin basic protein substrate (protein, UniProt P02686 1-304, looked up)
Myelin basic protein: B1 Myelin basic protein
modifications: radiolabeled, Ser/Tyr-phosphorylated
notes: radiolabeled myelin basic protein substrate
B3: MyBP Tyr(P): radiolabeled myelin basic protein substrate, tyrosine phosphorylated (protein, UniProt P02686 1-304, looked up)
Myelin basic protein: B1 Myelin basic protein
modifications: radiolabeled, tyrosine-phosphorylated

Assays:
[1] = target: T1, PLIP; assay: Phosphatase activity of various PTPs (malachite green / radiolabeled protein substrates); assay type: biochemical, murine; conditions: for Phosphatase activity, PLIP: mole of phosphate released/min/mol of enzyme, pH 5.5, triplicate, this study
Method: Recombinant murine PLIP was expressed as a fusion protein with N-terminal GST and 6-His tags in Escherichia coli BL21 (DE3) CodonPlus RIL cells (Stratagene). The expression construct was assembled by ligating a PCR product encoding full-length PLIP into the 5′-EcoR1 and 3′-Xho1 sites of a modified pET41 vector (pSJ6), kindly provided by Zhaohui Xu (University of Michigan). […] Cultures were then chilled on ice for 20 min, supplied with fresh antibiotics, induced with IPTG to a final concentration of 0.4 mM, and allowed to grow overnight @ 25° C., as previously described (Taylor and Dixon, 2003). All subsequent steps were performed @ 4° C. The cultures were pelleted by spinning @ 6000 rpm for 10 min in a Sorvall GSA rotor, resuspended in 30 ml of buffer (20 mM Imidazole, 50 mM Tris pH 7.4, 300 mM NaCl) with Complete protease inhibitors (Roche), and lysed via French Press. Insoluble material was removed by centrifugation @ 50,000 rpm for 30 min. The fusion protein was purified from the soluble supernatant first over Ni^2+ agarose beads, and then by successive separation on Superdex 75 and 200 gel filtration columns (Amersham). The resulting protein was concentrated, flash frozen in liquid nitrogen, and stored @−80° C. in 25% glycerol, 2 mM EDTA, and 2 mM DTT until use.
Di-C8 phosphoinosites (Echelon) and Dioleoyl-phosphatidylserine (Sigma) were dried together in a Speed Vac and resuspended via sonication in 18 μl assay buffer (100 mM sodium acetate, 50 mM bis-Tris, 50 mM Tris (pH 5.5), 10 mM DTT) to final concentrations of 50 μM and 500 μM, respectively. After prewarming at 37° C. for 5 min, reactions were initiated by the addition of 20 to 2000 ng of GST-PLIP diluted in assay buffer containing 1.0 mg/ml gelatin. Reactions were quenched after 5-30 min by the addition of 20 μl 0.1 M N-ethylmaleimide, and spun at 18,000×g for 10 min to sediment the lipid aggregates. […] Samples were allowed to sit for 40 minutes for color development before measuring absorbance at 620 nm. Inorganic phosphate release was quantitated by comparison to a standard curve of KH2PO4 in dH2O. […]

[2] = target: T2, TC-PTP; assay: as above; assay type: biochemical; conditions: mole of phosphate released/min/mol of enzyme; triplicate; this study
Method: (§1) Di-C8 phosphoinosites (Echelon) and Dioleoyl-phosphatidylserine (Sigma) were dried together in a Speed Vac and resuspended via sonication in 18 μl assay buffer (100 mM sodium acetate, 50 mM bis-Tris, 50 mM Tris (pH 5.5), 10 mM DTT) to final concentrations of 50 μM and 500 μM, respectively. After prewarming at 37° C. for 5 min, reactions were initiated by the addition of 20 to 2000 ng of GST-PLIP diluted in assay buffer containing 1.0 mg/ml gelatin. Reactions were quenched after 5-30 min by the addition of 20 μl 0.1 M N-ethylmaleimide, and spun at 18,000×g for 10 min to sediment the lipid aggregates. Twenty-five microliters of the supernatant was added to 50 μl of malachite green reagent and vortexed. Samples were allowed to sit for 40 minutes for color development before measuring absorbance at 620 nm. Inorganic phosphate release was quantitated by comparison to a standard curve of KH2PO4 in dH2O.
(§2) Assays using radiolabeled protein substrates or pNPP were carried in assay buffer containing 50 mM sodium acetate, 25 mM bis-Tris, 25 mM Tris, and 2 mM DTT at pH 5.5 (GST-PLIP), 6.0 (VHR), or 7.0 (TC-PTP), at 30° C. Radiolabeled proteins and pNPP were prepared and assayed as previously reported (Taylor et al., 1997).
(§3) Due to the only recent emergence of PI(5)P as a known signaling molecule, few PTP's have been tested for activity against this substrate. To ensure that activity against PI(5)P is not a common feature of PTP's, membrane-bound di-C8 PI(5)P was assayed using a known tyrosine-specific PTP (TC-PTP) and a known dual-specific PTP (VHR) (Ishibashi et al., 1992; Zhao et al., 1992; Ruzzene et al., 1993; Zhou et al., 1994; Denu et al., 1995).

[3] = target: VHR (Homo sapiens, UniProt P51452); assay: as above; assay type: biochemical; conditions: mole of phosphate released/min/mol of enzyme; triplicate; this study
Chain of VHR (P51452 whole entry, species assumed): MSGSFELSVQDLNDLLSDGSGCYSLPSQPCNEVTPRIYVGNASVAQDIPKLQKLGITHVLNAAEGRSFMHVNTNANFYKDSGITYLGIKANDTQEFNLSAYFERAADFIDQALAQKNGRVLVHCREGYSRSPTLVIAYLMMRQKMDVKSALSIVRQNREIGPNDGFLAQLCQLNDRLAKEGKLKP
Method: as §1, §2, §3

[4] = target: PTEN (Homo sapiens, UniProt P60484); conditions: protein substrates; Ref. 43; cited from earlier work
Chain of PTEN (P60484 whole entry, species assumed): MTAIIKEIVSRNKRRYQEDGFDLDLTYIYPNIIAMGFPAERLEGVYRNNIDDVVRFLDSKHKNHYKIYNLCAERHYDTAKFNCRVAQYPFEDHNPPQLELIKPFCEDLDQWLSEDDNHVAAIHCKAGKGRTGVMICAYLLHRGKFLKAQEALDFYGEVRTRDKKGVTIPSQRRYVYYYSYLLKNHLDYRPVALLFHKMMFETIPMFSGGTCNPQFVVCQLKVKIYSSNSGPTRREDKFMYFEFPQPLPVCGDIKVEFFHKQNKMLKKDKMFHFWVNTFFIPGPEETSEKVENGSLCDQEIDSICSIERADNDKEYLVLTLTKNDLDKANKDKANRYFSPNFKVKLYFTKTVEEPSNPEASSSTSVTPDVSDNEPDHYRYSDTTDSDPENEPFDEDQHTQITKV

[5] = target: T3, MTM1; conditions: Ref. 32; cited from earlier work

Molecule | PLIP activity, fold lower than against PI(5)P ([1]; radiolabeled protein substrates) | Phosphatase activity, TC-PTP [2] | Phosphatase activity, VHR [3] | Phosphatase activity, PLIP [1] | Phosphatase activity, PTEN [4] | Phosphatase activity, MTM1 [5]
B1 | approximately 1000 fold |  |  |  |  | 
B2 |  | ~0.0^b mol/(min mol) | ~0.0^b mol/(min mol) | ~0.0^b mol/(min mol) | ~0.0^c mol/(min mol) | ~0.0^d mol/(min mol)
B3 |  | 195^b mol/(min mol) | 0.5^b mol/(min mol) | 0.1^b mol/(min mol) | ~0.0^c mol/(min mol) | ~0.0^d mol/(min mol)
